Measured values published in patent US10654893B2, “Self-assembling peptide compositions” (3-D MATRIX, LTD., priority 2014, dated 2020).

Experiments:
Format in all cases: physicochemical
[1] = Visual observation of peptide compositions with selected salts (cloud point, critical ionic strength); conditions: for Observation: room temperature; for Conc. at cloud point / Ionic strength at cloud point: visual observation of solubility
Protocol: Visual observations of RADA16 (SEQ ID NO:1), KLD12 (SEQ ID NO:2), and IEIK13 (SEQ ID NO:3) compositions with selected salts (e.g. KCl, MgCl2, CaCl2) are summarized in Tables 7-9. […] Apparent stiffness of RADA16 (SEQ ID NO:1), KLD12 (SEQ ID NO:2) and IEIK13 (SEQ ID NO:3) compositions was increased with increased ionic strength.
Critical ion strengths were determined from the visual observations recorded in Tables 7-9. When the ionic strengths of peptide compositions were higher than 0.9 M (RADA16 (SEQ ID NO:1)), 0.3 M (KLD12 (SEQ ID NO:2)) or 0.03 M (IEIK13 (SEQ ID NO:3)), the peptide compositions began phase separation. 0.9 M, 0.3 M and 0.03 M may represent critical ion strengths for RADA16 (SEQ ID NO:1), KLD12 (SEQ ID NO:2) and IEIK13 (SEQ ID NO:3), respectively.

[2] = Congo Red assay of gel formation in PBS solution (pH 7.4); conditions: 0.5%, 1.0%, 1.5%, 2.0% and 2.5%
Protocol: A Congo Red assay was performed to determine gel formation of peptide compositions in a PBS (Phosphate buffered saline) solution (pH 7.4), as shown in FIG. 1. 100 μl of each gel at selected concentrations were plated on a glass slide. After 30 seconds, 500 μl of 1% Congo Red solution was added around and on top of each of the composition aliquots and then the excess Congo Red solution was wiped off prior to examination. RADA16 (SEQ ID NO:1), IEIK13 (SEQ ID NO:3), and KLD12 (SEQ ID NO:2) were plated at selected concentrations of 0.5%, 1.0%, 1.5%, 2.0% and 2.5%. Visual observation determined the success or failure of gelation at each concentration.

[3] = Formulation chart: concentration for desired storage modulus from linear trendline equations; conditions: linear trendline equation
Excerpt: In some embodiments, peptide compositions with a specific desired stiffness may be formulated to have a particular peptide concentration determined using a mathematical model (i.e., the modulus trend-line equation). A formulation chart of peptide compositions may relate their concentrations in deionized water to their specific storage moduli, for example as is presented below in Table 3A. From such a chart, one skilled in the art may formulate a peptide composition with desired rheological properties by selecting a particular peptide and an appropriate peptide concentration so that the formulated composition has a desired stiffness.

Substance: Arg-Ala-Asp-Ala-Arg-Ala-Asp-Ala-Arg-Ala-Asp-Ala-Arg-Ala-Asp-Ala [RADA16]
- Observation ([1]; RADA16 1.43%, KCl 0.15 M, ionic strength 0.15 M): Clear, thick, stiffer gel
- Observation ([1]; RADA16 1.43%, MgCl2 0.15 M, ionic strength 0.45 M): Clear, thick, stiffer gel
- Observation ([1]; RADA16 1.43%, NaCl 0.15 M, ionic strength 0.15 M): Clear, thick, stiffer gel
- Observation ([1]; RADA16 1.45%, CaCl2 0.1 M, ionic strength 0.3 M): Clear, thick, stiffer gel
- Observation ([1]; RADA16 1.45%, MgCl2 0.1 M, ionic strength 0.3 M): Clear, thick, stiffer gel
- Observation ([1]; RADA16 1.48%, CaCl2 0.05 M, ionic strength 0.15 M): Clear, thick, stiffer gel
- Observation ([1]; RADA16 1.48%, MgCl2 0.05 M, ionic strength 0.15 M): Clear, thick, stiffer gel
- Observation ([1]; RADA16 1.5%, CaCl2 0 M, ionic strength 0 M): Clear, thick gel
- Observation ([1]; RADA16 1.5%, DPBS (pH 3.2) 0 M, ionic strength 0 M): Clear, thick gel
- Observation ([1]; RADA16 1.5%, KCl 0 M, ionic strength 0 M): Clear, thick gel
- Observation ([1]; RADA16 1.5%, MgCl2 0 M, ionic strength 0 M): Clear, thick gel
- Observation ([1]; RADA16 1.5%, NaCl 0 M, ionic strength 0 M): Clear, thick gel
- Ionic strength range that did not noticeably change the opacity of compositions ([1]; approximately, depending on salt identities): 0.85˜1.15 M
- Critical ion strength (above it compositions began phase separation) ([1]; from visual observations of Tables 7-9): 0.9 M
- Critical ionic strength (when the composition becomes cloudy) ([1]; range over salts): 0.9˜1.2 M
- Conc. at cloud point ([1]; salt CaCl2): 0.383~0.4 M
- Ionic strength at cloud point ([1]; salt CaCl2): 1.15~1.2 M
- Conc. at cloud point ([1]; salt DPBS (pH 3.2)): 0.9~0.95 M
- Ionic strength at cloud point ([1]; salt DPBS (pH 3.2)): 0.9~0.95 M
- Conc. at cloud point ([1]; salt KCl): 1.0~1.05 M
- Ionic strength at cloud point ([1]; salt KCl): 1.0~1.05 M
- Conc. at cloud point ([1]; salt MgCl2): 0.383~0.4 M
- Ionic strength at cloud point ([1]; salt MgCl2): 1.15~1.2 M
- Conc. at cloud point ([1]; salt NaCl): 0.85~0.9 M
- Ionic strength at cloud point ([1]; salt NaCl): 0.85~0.9 M
- Gel formation (success or failure of gelation) [2]: gelled at all concentrations
- Peptide concentration with deionized water to obtain desired storage modulus ([3]; storage modulus 25 Pa): 0.8
- Peptide concentration with deionized water to obtain desired storage modulus ([3]; storage modulus 50 Pa): 0.9
- Peptide concentration with deionized water to obtain desired storage modulus ([3]; storage modulus 75 Pa): 1.0
- Peptide concentration with deionized water to obtain desired storage modulus ([3]; storage modulus 100 Pa): 1.2
- Peptide concentration with deionized water to obtain desired storage modulus ([3]; storage modulus 125 Pa): 1.3
- Peptide concentration with deionized water to obtain desired storage modulus ([3]; storage modulus 150 Pa): 1.5
- Peptide concentration with deionized water to obtain desired storage modulus ([3]; storage modulus 175 Pa): 1.6
- Peptide concentration with deionized water to obtain desired storage modulus ([3]; storage modulus 200 Pa): 1.7
- Peptide concentration with deionized water to obtain desired storage modulus ([3]; storage modulus 225 Pa): 1.9
- Peptide concentration with deionized water to obtain desired storage modulus ([3]; storage modulus 250 Pa): 2.0
- Peptide concentration with deionized water to obtain desired storage modulus ([3]; storage modulus 275 Pa): 2.2
- Peptide concentration with deionized water to obtain desired storage modulus ([3]; storage modulus 300 Pa): 2.3
- Peptide concentration with deionized water to obtain desired storage modulus ([3]; storage modulus 325 Pa): 2.4
- Peptide concentration with deionized water to obtain desired storage modulus ([3]; storage modulus 350 Pa): 2.6
- Peptide concentration with deionized water to obtain desired storage modulus ([3]; storage modulus 375 Pa): 2.7
- Peptide concentration with deionized water to obtain desired storage modulus ([3]; storage modulus 400 Pa): 2.9
- Peptide concentration with deionized water to obtain desired storage modulus ([3]; storage modulus 425 Pa): 3.0
- Peptide concentration with deionized water to obtain desired storage modulus ([3]; storage modulus 500 Pa): 3.4
- Peptide concentration with deionized water to obtain desired storage modulus ([3]; storage modulus 600 Pa): 4.0
- Peptide concentration with deionized water to obtain desired storage modulus ([3]; storage modulus 700 Pa): 4.5
- Peptide concentration with deionized water to obtain desired storage modulus ([3]; storage modulus 800 Pa): 5.1
